In patent publication US20070009989A1, “Synthetic heparanase molecules and uses thereof” (priority 2003, published 2007):

Tests used:
[1] = molecular target: T1, hepHyal single chain construct produced in insect cells (Homo sapiens, UniProt Q9Y251, DEL119-135/E137F/E138K/K139D/K307R/L140K/L142P/R141T/V136A); test: Heparin titration in the fluorimetric heparanase activity assay, hepHyal; assay type: biochemical
T1 construct: made in house; host or cells: Sf9 insect cells (baculovirus, Bac to Bac)
T1 sequence (Q9Y251 other isoform, or with tags, fused parts or gaps DEL119-135/V136A/E137F/E138K/K139D/L140K/R141T/L142P/K307R): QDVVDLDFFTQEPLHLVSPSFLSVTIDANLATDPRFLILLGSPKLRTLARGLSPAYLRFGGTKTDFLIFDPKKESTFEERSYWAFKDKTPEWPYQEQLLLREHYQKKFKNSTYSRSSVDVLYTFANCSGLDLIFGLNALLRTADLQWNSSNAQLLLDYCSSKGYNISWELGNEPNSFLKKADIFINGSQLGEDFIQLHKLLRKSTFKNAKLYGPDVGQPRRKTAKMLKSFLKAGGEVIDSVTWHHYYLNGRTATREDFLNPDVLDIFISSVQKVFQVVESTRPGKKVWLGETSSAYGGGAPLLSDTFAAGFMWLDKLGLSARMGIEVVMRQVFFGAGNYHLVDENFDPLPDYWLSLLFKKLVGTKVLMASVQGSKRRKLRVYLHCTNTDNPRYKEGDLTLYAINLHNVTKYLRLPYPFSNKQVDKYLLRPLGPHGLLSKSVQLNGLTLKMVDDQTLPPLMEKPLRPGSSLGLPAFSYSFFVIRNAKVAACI
Experimental: (§1) FIG. 7: Ionic strength dependence (panel A), inhibition by heparin (panel B) and pH-dependence (panel C) of wild-type heparanase produced in COS7 cells (●), hepGS3 (□) and hepHyal (▴) single chain constructs produced in insect cells using the fluorimetric activity assay.
(§2) This assay is based on the degradation of FITC-HS monitored by HPLC size exclusion chromatography. 8 μl of purified heparanase was incubated with 5 μL of FITC-HS in a 50 μl of 50 mM MES pH 6, 10% glycerol (heparanase activity buffer, HAB). The reaction mixture was incubated at room temperature for a defined period and the reaction was stopped by the addition of 50 μg of heparin. The mixture was then filtered using Ultrafree-MC centrifugal filter Devices (Millipore). 20 μl were injected on a Superdex 75™ (Pharmacia Biotech) column equilibrated in buffer 50 mM Hepes pH 7.5 150 mM Na2SO4 and connected to a Merck-Hitachi HPLC system. Fluorescent heparan sulfate degradation products were detected by an L-7485 fluorescence detector. Heparanase activity was assessed by monitoring the increase in lower molecular weight heparan sulfate species compared with the intact FITC-HS and quantified by peak area integration.

[2] = molecular target: T2, hepGS3 single chain construct produced in insect cells (Homo sapiens, UniProt Q9Y251, DEL111-157/INS109GSGSG/K307R); test: Heparin titration in the fluorimetric heparanase activity assay, hepGS3; assay type: biochemical
T2 construct: made in house; host or cells: Sf9 insect cells (baculovirus, Bac to Bac)
T2 sequence (Q9Y251 with tags, fused parts or gaps INS109GSGSG/DEL111-157/K307R): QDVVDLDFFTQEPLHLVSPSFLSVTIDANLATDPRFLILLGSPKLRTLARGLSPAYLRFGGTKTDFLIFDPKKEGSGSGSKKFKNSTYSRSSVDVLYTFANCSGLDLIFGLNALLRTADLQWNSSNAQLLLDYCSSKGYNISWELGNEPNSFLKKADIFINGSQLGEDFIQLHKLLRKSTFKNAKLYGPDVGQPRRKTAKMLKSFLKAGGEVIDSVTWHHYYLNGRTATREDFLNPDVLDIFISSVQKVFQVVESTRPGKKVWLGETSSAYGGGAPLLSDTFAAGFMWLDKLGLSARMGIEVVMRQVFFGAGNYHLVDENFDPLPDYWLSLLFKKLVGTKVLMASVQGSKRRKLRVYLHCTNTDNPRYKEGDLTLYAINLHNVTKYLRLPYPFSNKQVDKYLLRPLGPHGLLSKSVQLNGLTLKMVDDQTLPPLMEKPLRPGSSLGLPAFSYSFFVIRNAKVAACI
Experimental: as §1, §2

[3] = molecular target: T3, wild-type heparanase produced in COS7 cells (hepwt) (Homo sapiens, UniProt Q9Y251); test: Heparin titration in the fluorimetric heparanase activity assay, wild-type enzyme; assay type: biochemical
T3 construct: made in house; host or cells: COS7 cells, transient transfection with pcDNA3; partially purified on Heparin Sepharose
T3 sequence (Q9Y251 36-109 limits assumed): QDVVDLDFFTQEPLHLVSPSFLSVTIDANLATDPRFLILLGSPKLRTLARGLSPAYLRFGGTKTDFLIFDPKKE
T3 sequence (Q9Y251 158-543 limits assumed): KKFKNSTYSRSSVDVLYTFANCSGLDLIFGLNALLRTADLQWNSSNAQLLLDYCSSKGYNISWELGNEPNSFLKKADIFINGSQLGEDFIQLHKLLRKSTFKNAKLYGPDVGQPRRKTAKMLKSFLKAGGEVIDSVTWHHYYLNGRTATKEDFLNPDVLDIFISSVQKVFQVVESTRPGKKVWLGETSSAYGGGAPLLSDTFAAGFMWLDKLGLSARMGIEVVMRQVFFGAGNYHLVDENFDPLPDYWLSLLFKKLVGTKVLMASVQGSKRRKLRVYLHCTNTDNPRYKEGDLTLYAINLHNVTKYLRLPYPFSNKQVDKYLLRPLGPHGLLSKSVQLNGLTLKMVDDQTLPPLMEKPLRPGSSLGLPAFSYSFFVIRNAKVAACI
Experimental: as §1, §2

[4] = Heparanase activation of TEV cleavage site constructs by digestion with TEV protease; assay type: biochemical; conditions: overnight at room temperature, TEV protease 0.5 μM, 50 mM Mes pH 6.0
Experimental: Heparanase activity of these samples was assessed using the fluorimetric method.
The constructs having TEV cleavage sites at positions 109/110 and 109/110+157/158 were expressed, purified on a heparin affinity column and digested overnight at room temperature with TEV protease (0.5 μM) in 50 mM Mes pH 6.0, 10% glycerol, 0.5 mM EDTA.
as §2

[5] = cited from earlier work
[6] = molecular target: T4, hepTEV110 (human heparanase with a TEV cleavage site E109-GSGSENLYFQ-GSG-G110 inserted between E109 and G110)
T4 chain: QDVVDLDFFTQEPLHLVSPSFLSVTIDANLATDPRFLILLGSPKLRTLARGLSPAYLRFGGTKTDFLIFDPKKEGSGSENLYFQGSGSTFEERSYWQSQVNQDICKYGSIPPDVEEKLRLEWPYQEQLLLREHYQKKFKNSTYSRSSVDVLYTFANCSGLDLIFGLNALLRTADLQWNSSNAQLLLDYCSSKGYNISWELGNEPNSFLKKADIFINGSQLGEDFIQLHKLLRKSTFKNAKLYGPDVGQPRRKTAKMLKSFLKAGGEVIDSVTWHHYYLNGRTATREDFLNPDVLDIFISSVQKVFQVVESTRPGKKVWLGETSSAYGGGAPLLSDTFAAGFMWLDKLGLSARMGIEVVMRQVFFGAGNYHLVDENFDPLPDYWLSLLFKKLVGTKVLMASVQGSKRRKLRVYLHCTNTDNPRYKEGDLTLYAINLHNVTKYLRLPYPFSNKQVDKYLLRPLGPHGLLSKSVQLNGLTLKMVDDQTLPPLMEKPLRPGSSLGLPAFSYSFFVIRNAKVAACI

[7] = molecular target: T5, hepTEV110/158 (human heparanase with TEV cleavage sites between E109/G110 and Q157/K158)
T5 chain: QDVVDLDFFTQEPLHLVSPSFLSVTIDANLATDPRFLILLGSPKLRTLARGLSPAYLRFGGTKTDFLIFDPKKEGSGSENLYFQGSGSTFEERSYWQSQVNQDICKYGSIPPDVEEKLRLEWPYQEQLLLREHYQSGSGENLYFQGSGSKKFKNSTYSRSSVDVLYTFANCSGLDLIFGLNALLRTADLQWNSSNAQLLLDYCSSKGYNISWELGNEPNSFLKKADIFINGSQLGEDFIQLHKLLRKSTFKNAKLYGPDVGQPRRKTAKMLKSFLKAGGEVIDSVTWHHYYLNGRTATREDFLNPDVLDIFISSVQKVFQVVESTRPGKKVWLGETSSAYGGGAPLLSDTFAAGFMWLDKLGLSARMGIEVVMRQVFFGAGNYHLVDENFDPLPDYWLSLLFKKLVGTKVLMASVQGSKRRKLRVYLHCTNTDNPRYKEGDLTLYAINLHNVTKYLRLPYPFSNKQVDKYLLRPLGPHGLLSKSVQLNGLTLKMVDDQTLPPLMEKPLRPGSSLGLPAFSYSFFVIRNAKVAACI

heparin
IC50 of heparin, hepHyal [1]: 1.5 µg/mL | IC50 of heparin, hepGS3 [2]: 1.1 µg/mL | IC50 of heparin, hepwt [3]: 0.9 µg/mL

B1: 109/110: heparanase with TEV protease cleavage site between E109 and G110, protein SEQ ID NO:31 (protein)
chain: MLLRSKPALPPPLMLLLLGPLGPLSPGALPRPAQAQDVVDLDFFTQEPLHLVSPSFLSVTIDANLATDPRFLILLGSPKLRTLARGLSPAYLRFGGTKTDFLIFDPKKEGSGSENLYFQGSGSTFEERSYWQSQVNQDICKYGSIPPDVEEKLRLEWPYQEQLLLREHYQKKFKNSTYSRSSVDVLYTFANCSGLDLIFGLNALLRTADLQWNSSNAQLLLDYCSSKGYNISWELGNEPNSFLKKADIFINGSQLGEDFIQLHKLLRKSTFKNAKLYGPDVGQPRRKTAKMLKSFLKAGGEVIDSVTWHHYYLNGRTATREDFLNPDVLDIFISSVQKVFQVVESTRPGKKVWLGETSSAYGGGAPLLSDTFAAGFMWLDKLGLSARMGIEVVMRQVFFGAGNYHLVDENFDPLPDYWLSLLFKKLVGTKVLMASVQGSKRRKLRVYLHCTNTDNPRYKEGDLTLYAINLHNVTKYLRLPYPFSNKQVDKYLLRPLGPHGLLSKSVQLNGLTLKMVDDQTLPPLMEKPLRPGSSLGLPAFSYSFFVIRNAKVAACI
modifications: hep TEV110
activation of heparanase by TEV protease treatment [4]: not sufficient for eliciting activation

B2: 109/110+157/158: heparanase with TEV cleavage sites between E109/G110 and Q157/K158, SEQ ID NOs:29 and 32 (protein)
chain: QDVVDLDFFTQEPLHLVSPSFLSVTIDANLATDPRFLILLGSPKLRTLARGLSPAYLRFGGTKTDFLIFDPKKEGSGSENLYFQGSGSTFEERSYWQSQVNQDICKYGSIPPDVEEKLRLEWPYQEQLLLREHYQSGSGENLYFQGSGSKKFKNSTYSRSSVDVLYTFANCSGLDLIFGLNALLRTADLQWNSSNAQLLLDYCSSKGYNISWELGNEPNSFLKKADIFINGSQLGEDFIQLHKLLRKSTFKNAKLYGPDVGQPRRKTAKMLKSFLKAGGEVIDSVTWHHYYLNGRTATREDFLNPDVLDIFISSVQKVFQVVESTRPGKKVWLGETSSAYGGGAPLLSDTFAAGFMWLDKLGLSARMGIEVVMRQVFFGAGNYHLVDENFDPLPDYWLSLLFKKLVGTKVLMASVQGSKRRKLRVYLHCTNTDNPRYKEGDLTLYAINLHNVTKYLRLPYPFSNKQVDKYLLRPLGPHGLLSKSVQLNGLTLKMVDDQTLPPLMEKPLRPGSSLGLPAFSYSFFVIRNAKVAACI
activation of heparanase by TEV protease treatment [4]: activated

B3: 50 kDa protein: mature 50 kDa human heparanase fragment, SEQ ID NO:16 (protein)
chain: KKFKNSTYSRSSVDVLYTFANCSGLDLIFGLNALLRTADLQWNSSNAQLLLDYCSSKGYNISWELGNEPNSFLKKADIFINGSQLGEDFIQLHKLLRKSTFKNAKLYGPDVGQPRRKTAKMLKSFLKAGGEVIDSVTWHHYYLNGRTATREDFLNPDVLDIFISSVQKVFQVVESTRPGKKVWLGETSSAYGGGAPLLSDTFAAGFMWLDKLGLSARMGIEVVMRQVFFGAGNYHLVDENFDPLPDYWLSLLFKKLVGTKVLMASVQGSKRRKLRVYLHCTNTDNPRYKEGDLTLYAINLHNVTKYLRLPYPFSNKQVDKYLLRPLGPHGLLSKSVQLNGLTLKMVDDQTLPPLMEKPLRPGSSLGLPAFSYSFFVIRNAKVAACI
modifications: Human
activity if expressed as such in mammalian cells ([5]; Hulett et al. 1999): inactive | specific activity relative to the unprocessed 65 kDa precursor ([5]; Vlodavsky et al. 1999): at least 100 fold

B4: tobacco etch virus (TEV) protease (protein)
chain: GESLFKGPRDYNPISSTICHLTNESDGHTTSLYGIGFGPFIITNKHLFRRNNGTLLVQSLHGVFKVKNTTTLQQHLIDGRDMIIIRMPKDFPPFPQKLKFREPQREERICLVTTNFQTKSMSSMVSDTSCTFPSSDGIFWKHWIQTKDGQCGSPLVSTRDGFIVGIHSASNFTNTNNYFTSVPKNFMELLTNQEAQQWVSGWRLNADSVLWGGHKVFMSKPEEPFQPVKEATQLMNELVYSQ
proteolytic processing by TEV protease (overnight digestion, Western blot) [6]: Complete processing was observed in both cases | proteolytic processing by TEV protease (overnight digestion, Western blot) [7]: Complete processing was observed in both cases
